Data on two molecules can be found in PMC1865076.

For data set [1], the target named is T1, His6-Ovol1 (UniProt Q9WTJ2 1-267). The data set can be described thus: EMSA.
For data set [2], the target named is T1, His6-Ovol1. In words: competition.
A further data set addresses c-Myb R2R3 (chicken, UniProt P01103 87-193). In words: EMSA.

T1 sequence (Q9WTJ2 whole entry): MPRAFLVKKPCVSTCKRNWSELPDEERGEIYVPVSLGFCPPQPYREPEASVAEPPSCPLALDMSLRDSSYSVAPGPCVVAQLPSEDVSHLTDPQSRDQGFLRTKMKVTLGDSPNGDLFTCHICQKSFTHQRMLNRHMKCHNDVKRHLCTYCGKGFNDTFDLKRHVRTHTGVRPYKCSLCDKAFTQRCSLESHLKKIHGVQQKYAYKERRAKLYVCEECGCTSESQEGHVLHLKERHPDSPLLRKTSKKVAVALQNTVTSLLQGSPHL
Chain of c-Myb R2R3 (P01103 87-193): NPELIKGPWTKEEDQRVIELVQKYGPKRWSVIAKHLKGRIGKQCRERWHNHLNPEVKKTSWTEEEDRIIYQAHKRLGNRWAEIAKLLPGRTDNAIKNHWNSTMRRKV

B1: mim-C (dsDNA)
DNA 1: GTTGATTTCCATCTGTTATTTGAGCTAAG
DNA 2: CTTAGCTCAAATAACAGATGGAAATCAAC
As for B1, the binding result with His6-Ovol1 [1] is listed as “no binding”.

B2: mim-A (dsDNA)
DNA 1: AGCGCTAAAAAACCGTTATAATGTGCAGAT
DNA 2: ATCTGCACATTATAACGGTTTTTTAGCGCT
With B2, the binding result in the data set with His6-Ovol1 [2] and in the data set with c-Myb R2R3 was “binds” in each case.
